Results from publication PMC3518043 (Biochemistry, 2012).
Ends that are not written are not given here.

Legend:
[1] = molecular target: CHD5 PHD1 finger (338-393), GST tag cleaved (UniProt Q8TDI0 338-393); assay: SPR
[2] = molecular target: CHD5 PHD2 finger (413-468), GST tag cleaved (UniProt Q8TDI0 413-468); assay: SPR
[3] = molecular target: CHD5 tandem PHD1-2 (338-468), GST tag cleaved (UniProt Q8TDI0 338-468); assay: SPR
[4] = molecular target: CHD5 tandem PHD1-2 as used in the ALPHA (UniProt Q8TDI0 338-468); assay: AlphaScreen or HTRF
Sequence of CHD5 tandem PHD1-2 as used in the ALPHA (Q8TDI0 338-468): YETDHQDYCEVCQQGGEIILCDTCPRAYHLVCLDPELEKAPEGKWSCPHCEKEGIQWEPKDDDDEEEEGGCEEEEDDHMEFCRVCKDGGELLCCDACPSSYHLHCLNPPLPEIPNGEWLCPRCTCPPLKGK

Sequence of CHD5 PHD2 finger (413-468), GST tag cleaved (Q8TDI0 413-468): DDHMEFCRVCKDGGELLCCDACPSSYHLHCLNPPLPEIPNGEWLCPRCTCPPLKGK
Sequence of CHD5 PHD1 finger (338-393), GST tag cleaved (Q8TDI0 338-393): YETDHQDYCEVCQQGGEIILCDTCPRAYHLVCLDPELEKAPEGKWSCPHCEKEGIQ
Sequence of CHD5 tandem PHD1-2 (338-468), GST tag cleaved (Q8TDI0 338-468): as the sequence (Q8TDI0 338-468) above

Kd [1] [µM] | koff [1] [s⁻¹] | kon [1] [M⁻¹ s⁻¹] | Kd [2] [µM] | koff [2] [s⁻¹] | kon [2] [M⁻¹ s⁻¹] | Kd [3] [µM] | koff [3] [s⁻¹] | kon [3] [M⁻¹ s⁻¹] | binding result [4] | Binder
98.8 | 0.0103 ± 0.0001 | 104 ± 7 | 34.6 | 0.0136 ± 0.0003 | 393 ± 13 | 9.18 | 0.00348 | 379 ± 7 | – | ARTKQTARKST-biotin (peptide, UniProt P68431 2-12, looked up) [Histone H3 peptide (1-11) with C-terminal biotin]
– | – | – | – | – | – | – | – | – | binds | ARTKQTARKST (peptide, UniProt P68431 2-12, looked up) [Histone H3 peptide (1-11) with C-terminal 6x-histidine]
